“Also recorded” adds a separate entry of the source. Read-outs that look alike come from different tables or passages of the source.
T1: CCX CKR (Homo sapiens, UniProt Q9NPB9)
T1 construct: Full length CCX CKR expression constructs were made in pIRESpuro expression vector; expressed in transfected cells
T1 sequence (Q9NPB9 1-350): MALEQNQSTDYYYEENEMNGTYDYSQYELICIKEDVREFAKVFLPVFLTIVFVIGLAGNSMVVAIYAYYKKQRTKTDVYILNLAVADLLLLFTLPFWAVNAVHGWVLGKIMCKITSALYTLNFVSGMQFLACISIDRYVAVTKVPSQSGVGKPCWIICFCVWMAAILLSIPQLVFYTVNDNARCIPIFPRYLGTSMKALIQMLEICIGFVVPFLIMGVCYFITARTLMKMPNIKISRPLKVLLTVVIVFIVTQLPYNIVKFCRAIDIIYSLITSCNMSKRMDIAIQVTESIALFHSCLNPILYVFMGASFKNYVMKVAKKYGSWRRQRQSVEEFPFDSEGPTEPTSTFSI


Assays:
CCX CKR [1] = target: T1, CCX CKR; experiment: Radioligand binding competition (DisplaceMax) to CCX CKR stable transfectants with Scatchard transformation
Excerpt: In one embodiment, binding is detected as described by Dairaghi et al., 1997, J. Biol. Chem. 272:28206–209 (incorporated by reference in its entirety for all purposes) substituting CCX CKR transfectants for the CCR3 transfectants). In one embodiment, binding is detected using the filter based technique described by Dairaghi et al., 1999, J. Biol. Chem. 274:2156 (incorporated by reference in its entirety for all purposes), e.g., as shown in FIG. 4. Briefly, this technology employs expanded, efficiency-maximized radioligand binding utilizing filtration protocols. In these assays, 1×10^5 CCXCKR-293 HEK cells are incubated with ^125I-labeled ELC (MIP3beta) (final concentration of ˜0.05 nM) in the presence of unlabeled chemokine for 3 h at 4° C. in 25 mM HEPES, 140 mM NaCl, 1 mM CaCl2, 5 mM MgCl2, and 0.2% bovine serum albumin, adjusted to pH 7.1. Reactions were aspirated onto PEI-treated GF/B glass filters using a cell harvester (Packard). Filters are washed twice (25 mM HEPES, 500 mM NaCl, 1 mM CaCl2 5 mM MgCl2, adjusted to pH 7.1) and scintillant (e.g., MicroScint 20; 50 μl) is added to dried filters and counted (e.g., using a Packard Topcount scintillation counter). The competition dose-response curves is analyzed by standard methods to determine IC50 values (e.g., using GraphPad Prism software (San Diego, Calif.)). Additionally, a Scatchard transformation can be used to estimate the receptor sites per cell (e.g., using WaveMetrics Igor software (Lake Oswego, Oreg.)).
(§1) Binding analysis was carried out using efficiency-maximized radioligand binding utilizing filtration protocols designated “Displace Max” (Dairaghi et al., 1999, J. Biol. Chem. 274:21569). In these assays, DisplaceMax employed the simultaneous interrogation of CCX CKR transfectants by >80 distinct purified chemokines in the ability to displace radiolabeled ELC or TECK, using the protocol described (Dairaghi et al., 1999, J. Biol. Chem. 274:21569).
The binding interactions identified in the primary screen were examined quantitatively by extensive radioligand binding competition to CCX CKR stable transfectants and Scatchard transformation of the displacement data (FIG. 4B). […] In each case, the murine versions of these chemokines also bound, and with even greater affinity; the apparent Kd's are listed in FIG. 4B. […] In similar experiments, murine CTACK bound the receptor with a Kd of ˜9 nM (not shown). CTACK is also referred to as CCL27, ALP, ILC, and ESkine.

CCX CKR [2] = target: T1, CCX CKR; experiment: Ligand binding fingerprint: cold chemokines competing against 125I-ELC on CCX CKR stable transfectants; conditions: cold competitor at 200 nM; human and murine chemokines
Excerpt: In order to rapidly and thoroughly define a given chemokine receptor's ligand binding fingerprint, we have established an approach to comprehensively profile chemokine receptors using a large array of purified chemokines and chemokine variants. We used this approach to confirm independently the interaction of ELC and other chemokines with CCX CKR. Employing radioligand binding of ^125-labeled-ELC or ^125-TECK to CCX CKR stable transfectants, chemokine specificity for the new receptor was determined.
as §1

CCX CKR [3] = target: T1, CCX CKR; experiment: Ligand induced internalization of Flag-CCX CKR in 293 cells (FACS); assay type: cell-based; conditions: 100 nM chemokine, 37° C., 15 or 45 minutes, 293 F-CCR10 cells
Experimental: 293 cells transfected with the Flag-CCX CKR fusion plasmid (i.e., “293 F-CCR10 cells;” see Example 3) were incubated at 37° C. with varying concentrations of chemokines (ELC, SLC, TECK, murine CTACK and MCP-4) for 15 or 45 minutes. Following incubation, the cells were washed and fixed with 3% paraformaldehyde for 15 minutes on ice. The cells were stained with anti-Flag M1 antibody, followed by a PE-conjugated anti-mouse secondary antibody. FACS analysis were then carried out to determine surface expression of the receptor.
Results: A reduction in antibody binding in the presence of ligand is an indication of ligand-induced internalization of the receptor.

CCX CKR [4] = target: T1, CCX CKR; experiment: Small molecule screen: inhibition of 125I-ELC binding to HEK293 cells stably expressing CCX CKR; conditions: for effect on binding between ELC and CCX CKR: 125I-ELC ~25–100 pM, compounds 1–5 μg/mL, HEK293-CCX CKR cells, 3 hours at 4° C.; for type of modulator of CCX CKR function: Table 1, exemplary small molecule modulators of CCX CKR binding to ELC
Experimental: Source plates of chemical libraries were obtained from commercial vendors and contained individual compounds at 5 mg/mL in DMSO, or in some instances, at 1 mg/mL. From these, multiple compound plates containing 10 compounds in each well were made, and these were diluted in 20% DMSO to a concentration of 50 μg/mL (10 μg/mL for those beginning at 1 mg/mL). An aliquot of 20 μL of each mixture was put into the test plates, which were stored frozen until use.
HEK293 cells stably expressing the M1 flag epitope-tagged CCX CKR (described in Example 3, supra) were cultured in DMEM-10% FBS, and harvested when the concentration was between 0.5–1.0×10^6 cells/mL. The cells were centrifuged and resuspended in assay buffer (20 mM HEPES, 80 mM NaCl, 1 mM CaCl2, 5 mM MgCl2, and with 0.2% bovine serum albumin, pH 7.4) to a concentration of 5.6×10^6 cells/mL.
Using a Multi-Probe automated system, 0.09 mL of cells was added to each well of the assay test plates containing the compounds, followed by 0.09 mL of ^125I-MIPβ3/ELC (from Amersham Pharmacia Biotech) diluted in assay buffer (final concentration ˜25–100 pM, with ˜50,000 cpm per well). The final concentration of the compounds was 1–5 μg/mL each. The plates were sealed and incubated for approximately 3 hours at 4° C. on a shaker platform. The assay plates were harvested using Packard GP/B filter plates, pre-soaked in PEI solution, on the vacuum harvest apparatus. Scintillation fluid (50 μL) was added to each of the wells, the plates were sealed and counted in a Top Count scintillation counter. Control wells contained either diluent only (for total counts) or excess ELC (1 μg/mL, for non-specific binding) and were used to calculate the percent of total inhibition of ELC binding for each set of compounds.

CCX CKR [5] = target: T1, CCX CKR; experiment: Adhesion of HEK293-CCX CKR cells to immobilized stalkokines and competition by soluble chemokines; assay type: cell-based; conditions: soluble recombinant chemokine 5–10 ug/ml
Excerpt: “Stalkokine” technology was used to identify the chemokines bound by the CCX CKR. Briefly, immobilized native chemokines alone are incapable of capturing cells bearing cognate receptors (Imai et al., 1997, Cell 91:521). We have developed non-native chemokine structures, stalkokines, comprising chemokine moieties engineered as N-terminal attachments to extended modified mucins (Bazan et al., 1997, Nature 385:640). In one embodiment, stalkokines, harvested in the supernatants of HEK293 cells after transient transfection, are anchored to solid substrates via antibodies against carrier domains (e.g. poly-His epitopes) engineered to the carboxyl terminus, leaving the chemokine domain free to interact with candidate orphan receptors.
To determine ligand binding to CCX CKR, HEK293-CCX CKR cells were used to interrogate chemokine ‘stalkokines’ (SK), i.e., molecules in which discrete chemokine domains were engineered to be tethered to the end of an extended stalk structure. Stalkokines were interrogated using 8-well chamber slides coated first with anti-His anchoring antibody (10 ug/ml in PBS overnight at RT), which were washed and ‘blocked’ (2% FBS/0.5% BSA in PBS); treated with 250 ul of HEK293 cell stalkokine supernatants (1 hr at 37 C), and incubated with 500,000 HEK293-CCX CKR transfectants (1.5 hrs at RT). Inhibition of adhesion by competition with soluble chemokines was done by incubating cells with 5–10 ug/ml of recombinant chemokines. In all cases, nonadherent cells were removed by washing in PBS; remaining adherent cells were fixed with 1% glutaraldehyde, photoimaged and counted. As a primary screen this adhesion would reveal putative receptor-ligand interactions.

CCX CKR [6] = target: T1, CCX CKR; experiment: Homologous competition binding assay with radiolabeled chemokine on HEK293-CCX CKR cells; conditions: HEK293-CCX CKR cells versus wildtype HEK293 cells
Excerpt: Furthermore ELC-SK mediated adhesion was abolished in the presence of soluble native ELC as a competitor (FIG. 3A, top row). […] Moreover, radiolabeled ELC was used in a traditional homologous competition assay in the presence of increasing concentrations of unlabeled ELC. […] Taken together, the stalkokine-based adhesion and radiolabeled ligand binding/homologous competition assays indicate that CCX CKR is a new chemokine receptor that bound a novel compliment of chemokines.

Molecule | affinity of binding to CCX CKR, in words (CCX CKR [1]) | competition with 125I-labeled ELC binding to CCX CKR (fingerprint) (CCX CKR [2]) | internalization of CCX CKR (CCX CKR [3]) | effect on binding between ELC and CCX CKR (CCX CKR [4]) | type of modulator of CCX CKR function (CCX CKR [4]) | other results
BLC: the CXC chemokine BLC | lower affinity; also recorded: of lesser affinity, also bound well | potential lower affinity | – | – | – | –
MCP-4: chemokine, did not cause receptor internalization | – | – | did not cause internalization | – | – | –
CCC(c1nc2ccccc2c(=O)n1C)N(Cc1ccco1)C(=O)Nc1cccc(C(F)(F)F)c1 (stereo not shown) [Compound III] | – | – | – | enhance binding | Compound III(agonist) | –
CC1CCCCN1CCCN(Cc1ccc(OCc2ccccc2)cc1)C(=O)NCC1CCC2CCCC(C2)C1 (stereo not shown) [Compound II] | – | – | – | inhibit binding | Compound II(antagonist) | –
MCP-3: chemokine, representative of many non-competing chemokines | – | – | – | – | – | effect of soluble chemokine on ELC-SK mediated adhesion of HEK293-CCX CKR cells (CCX CKR [5]): no diminution in adhesion
CC1CCCCN1CCCN(Cc1ccc(OCc2ccccc2)cc1)C(=O)Nc1ccc(Cl)c(Cl)c1 (stereo not shown) [Compound I] | – | – | – | inhibit binding | Compound I(antagonist) | –
murine CTACK: murine chemokine CTACK, also referred to as CCL27, ALP, ILC, and ESkine (protein) LPLPSSTSCCTQLYRQPLPSRLLRRIVHMELQEADGDCHLQAVVLHLARRSVCVHPQNRSLARWLERQGKRLQGTVPSLNLVLQKKMYSHPQQQN | high affinity | – | Internalization of the receptor was observed | – | – | –
mMIP-1gamma: murine chemokine MIP-1γ (protein) QITHATETKEVQSSLKAQQGLEIEMFHMGFQDSSDCCLSYNSRIQCSRFIGYFPTSGGCTRPGIIFISKRGFQVCANPSDRRVQRCIERLEQNSQPRTYKQ | lower affinity | moderately | – | – | – | –
vMIP-II: virally-encoded chemokine from the human Kaposi's sarcoma herpesvirus HHV8 (protein) LGASWHRPDKCCLGYQKRPLPQVLLSSWYPTSQLCSKPGVIFLTKRGRQVCADKSKDWVKKLMQQLPVTAR | moderate to low affinity | potential lower affinity | – | – | – | affinity of binding to CCX CKR, in words (CCX CKR [1]; listed as vMIPII): lower affinity
TECK: thymus expressed chemokine, recombinant (protein) QGVFEDCCLAYHYPIGWAVLRRAWTYRIQEVSGSCNLPAAIFYLPKRHRKVCGNPKSREVQRAMKLLDARNKVFAKLHHNTQTFQAGPHAVKKLSSGNSKLSSSKFSNPISSSKRNVSLLISANSGL | high affinity | bound well | Internalization of the receptor was observed | – | – | binding in homologous competition of radiolabeled with unlabeled chemokine (CCX CKR [6]): Nearly identical results; effect of soluble chemokine on ELC-SK mediated adhesion of HEK293-CCX CKR cells (CCX CKR [5]): significant reduction; also recorded: ablation of adhesion

Reference: patent publication US7108990B2, “Chemokine receptor” (ChemoCentryx, Inc., priority 1999, dated 2006)
